Here are results for 6 molecules from US20260234247A1 (published 2026).

To fix the notation:
B1: LK-RB1-11 (antibody, human IgG4 S228P, kappa, V domains shown)
VH: QVTLKESGPGILQPSQTLSLTCSFSGFSLKTSGMSVGWIRQPSGKGLEWLAHIWWNDDKYYNPVLKGRLTISKDTSNNLVFLKIASVVSTDTATYYCVRYGNSHGYWYFDVWGTGTTVTVSS
VL: NIVLTQSPASLAVSLGQRATISCRASESVDSYGNNFIHWYQQKPGQPPKVLIYYASNLEAGVPARFSGSGSRTDFTLTIDPVEAEDAATYYCQQNNEDPYTFGGGTKLEIER
notes: Anti-LILRB1 antibody
B2: LK-RB1-50 (antibody, human IgG4 S228P, kappa, V domains shown)
VH: QVQLKQSGPGLVQPSQSLSITCTVSGFSLTSYGVHWVRQSPGKGLEWLGVIWRGGNTDYNAPFVSRLSITKDNSQSQVFFKMNSLEADDTAIYYCAKNSLDVYSSWYFDVWGTGTTVTVSS
VL: QIVLSQSPAILSAFPGEKVTMTCRASSSVSFMHWYQQKPGSSPKPWIYATSNLASGVPARFSGSGSGTSYSLTISRVEAEDAATYYCQQWSSNPLTFGAGTKLELKR
notes: Anti-LILRB1 antibody
B3: LK-RB1-58 (antibody, human IgG4 S228P, kappa, V domains shown)
VH: QVQLKQSGPGLVQPSQSLSITCTVSGFSLTTYGVHWVRQSPGKGLEWLGVIWRGGSTDYNAAFMSRLSITKDNSKSQVFFRMNSLQADDTARYYCAKNSLYYGSSWYFDVWGTGTTVTVSS
VL: QIVLSQSPAILSASPGEKVTMTCRASSSVSFMHWYQQKPGSSPKPWIYATSNLASGVPARFSGSGSGTSYSLTISRVEAEDAATYYCQQWSSNPPTFGGGTKLEIKR
notes: Anti-LILRB1 antibody
B4: LK-RB1-51 (antibody, human IgG4 S228P, kappa, V domains shown)
VH: QVQIQQSGAELVKPGASVKLSCKASGYTFTEFPIHWIKQRSGQGLEWIGWFYPGSDNMNYNEKFKDKATLTADKSSSTVYMELSRLTSEDSAVYFCARHENAYFYAMDYWGQGTSVTVSS
VL: ENVLTQSPAIMSASLGEKVTMSCRASSSVNYMYWYQQKSDASPKIWIYYTSNLAPGVPARFSGSGSGNSYSLTISSMEGEDAATYYCQQFTSSPFTFGTGTKLEIKR
notes: Anti-LILRB1 antibody
B5: LK-RB1-54 (antibody, human IgG4 S228P, kappa, V domains shown)
VH: DVQLQESGPGLVKPSQSLSLTCSVTGYSITSGFYWNWIRQFPGNKLEWMGHISYDGTNNYNPSLKNRISITRDTSKNLFFLKLNSVTTEDTATFHCARGGYGGSYGFDYWGQGTTLTVSS
VL: ENVLTQSPAIMSASLGEKVTMSCRASSSVNYMYWYQQKSDASPKLWIYYTSNLAPGVPVRFSGSGSGNSYSLTISSMEGEDAATYYCQQFTSSPWTFGGGTKLEIKR
notes: Anti-LILRB1 antibody
B6: hz73D1.v1 (antibody, human IgG4 S228P, kappa, V domains shown)
VH: QVQLVQSGAEVKKPGASVKVSCKASGYTFTDYYINWVRQAPGQGLEWMGNVNPNDGGTTYNQKFKGRVTMTTDTSTSTAYMELRSLRSDDTAVYYCARREIYFYGTIYYYAMDYWGQGTLVTVSS
VL: DIQLTQSPSFLSASVGDRVTITCRASESVDYYGNSFMYWYQQKPGKAPKLLIYFASNLESGVPSRFSGSGSGTEFTLTISSLQPEDFATYYCQQNNEDPWTFGGGTKVEIKR

This test addresses T1, Rhesus LILRB1 (F7H3G7) on CHOK1 cells (rhesus macaque).
T1 construct: whole, on cells; also called CHOK1-Rhesus LILRB1 (F7H3G7)
Put plainly: flow cytometry on CHOK1-rhesus LILRB1 (F7H3G7) cells. On the technique in general: Flow cytometry measures light scatter and fluorescence of single cells or particles in a stream.
A word on the EC50: it is the concentration needed to bring the measured effect to its halfway point. Lower therefore signals higher potency in that assay. With B1, the response was half-maximal at 0.00078 µM (EC50).

The molecule B2 displayed an EC50 of 19.9 µM.

As for B3, the EC50 came out at 17.9 µM.

For B4, the midpoint of the response, the EC50, lay at 26.6 µM.

The molecule B5 had a half-maximal effective concentration (EC50) of 24.2 µM.

The molecule B6 had an EC50 of 0.00125 µM.
